For this test, the target named is nesprin-2-Giant, Q6ZWQ0-1. The experiment in a line: Duolink PLA (proximity ligation assay) in cells. Particulars: chain shown with the change; Bax/Bak DKO MEFs, transient transfection, in the presence of Q-VD-OPH; anti-Bax (6A7) Ab and anti-nesprin-2G Ab; n = 3; parent: est. 5.1; read off a plot; scale: fold of normalized Duolink dots per transfected cell relative to GFP.

B1: GFP-Bax, Q07812 63-65A (protein)
chain: MDGSGEQPRGGGPTSSEQIMKTGALLLQGFIQDRAGRMGGEAPELALDPVPQDASTKKLSECAAAIGDELDSNMELQRMIAAVDTDSPREVFFRVAADMFSDGNFNWGRVVALFYFASKLVLKALCTKVPELIRTIMGWTLDFLRERLLGWIQDQGGWDGLLSYFGTPTWQTVTIFVAGVLTASLTIWKKMG
In the case of B1, the response came to 8.8.

For the origin of these results see PMC7501853.
